29 sequences from the supplement of paper PMC9428881 can be followed below.

This data set in a line: background-corrected fluorescence of 3'-dye-labeled ssDNA relative to brightest sequence (3'-GCGCG) (fraction); higher = brighter dye fluorescence (less quenching). An outline of the steps: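 Arrays of single-stranded DNA, with a 3' Cy3 or Cy5 dye beside each of 1024 permuted pentamers, were built on glass slides through light-directed phosphoramidite synthesis. They were washed for 2 h at r.t. in acetonitrile and scanned at 532 or 635 nm, once before and once after overnight ethylenediamine/ethanol deprotection. Fluorescence is reported after subtracting unlabeled-oligo background and normalizing to the brightest sequence. Averages cover 10 features per array and at least 3 syntheses.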

± gives the standard error.

Regarding “TTTTTTCATCATCAGCATGCTTTTTTTTTTTTTTTGGGTA [ATGGG]”, the background-corrected fluorescence turned out to be 0.614 ± 0.0069 (dye: Cy3 (3' terminal)) and 0.517 ± 0.03 (dye: Cy5 (3' terminal)).
On to “TTTTTGCAGCATGCGCAGCATTTTTTTTTTTTTTTTTATT”, for which the background-corrected fluorescence (dye: Cy3 (3' terminal)) stood at 0.5242 ± 0.0046 and the background-corrected fluorescence (dye: Cy5 (3' terminal)) came to 0.403 ± 0.029.
Taken in the same sequence, the figures for “TTTTTGCATGATGATCATCATTTTTTTTTTTTTTTTCCGG [GGCCT]” were 0.617 ± 0.0071 and 0.539 ± 0.037.
Taken in the same sequence, the figures for “TTTTTTCATCATCATCAGCATTTTTTTTTTTTTTTGGGGT” were 0.741 ± 0.023 and 0.626 ± 0.053.
Taken in the same sequence, the figures for “TTTTTTGCTCATGCTGCTGATTTTTTTTTTTTTTTAGAAC [CAAGA]” were 0.485 ± 0.022 and 0.358 ± 0.022.
The sequence “TTTTTGCAGCAGCATGCGCATTTTTTTTTTTTTTTTTTAT [TATTT]” gave a background-corrected fluorescence (dye: Cy3 (3' terminal)) of 0.503 ± 0.033 and a background-corrected fluorescence (dye: Cy5 (3' terminal)) of 0.364 ± 0.017.
In the case of “TTTTTTGCTGATGCTCATGCTTTTTTTTTTTTTTTACAGA [AGACA]”, the background-corrected fluorescence reads like this: (dye: Cy3 (3' terminal)) 0.615 ± 0.02; (dye: Cy5 (3' terminal)) 0.459 ± 0.036.
The corresponding values for “TTTTTTCATCATGCTGAGCATTTTTTTTTTTTTTTGGACT [TCAGG]” are 0.508 ± 0.033 and 0.412 ± 0.04.
Taken in the same sequence, the figures for “TTTTTTCATGCTGATGATCATTTTTTTTTTTTTTTGACCG [GCCAG]” were 0.524 ± 0.032 and 0.428 ± 0.043.
Taken in the same sequence, the figures for “TTTTTTCATCATGCGCATCATTTTTTTTTTTTTTTGGATG [GTAGG]” were 0.533 ± 0.031 and 0.388 ± 0.026.
As for “TTTTTTGAGCAGCATCAGCATTTTTTTTTTTTTTTCTTGT [TGTTC]”, the background-corrected fluorescence is 0.604 ± 0.019 (dye: Cy3 (3' terminal)) and 0.429 ± 0.024 (dye: Cy5 (3' terminal)).
For “TTTTTGCATCATGATGATGATTTTTTTTTTTTTTTTGCCC [CCCGT]”, the background-corrected fluorescence was 0.378 ± 0.032 (dye: Cy3 (3' terminal)) and 0.272 ± 0.016 (dye: Cy5 (3' terminal)).
Taken in the same sequence, the figures for “TTTTTTGATGATGCTCATCATTTTTTTTTTTTTTTCCAGG [GGACC]” were 0.642 ± 0.016 and 0.511 ± 0.057.
Take “TTTTTTGCTGCTGATCATCATTTTTTTTTTTTTTTAACGG [GGCAA]”: the background-corrected fluorescence is 0.652 ± 0.019 (dye: Cy3 (3' terminal)) and 0.552 ± 0.04 (dye: Cy5 (3' terminal)).
Taken in the same sequence, the figures for “TTTTTTCATGAGCATCAGCATTTTTTTTTTTTTTTGCTGT [TGTCG]” were 0.594 ± 0.011 and 0.458 ± 0.038.
“TTTTTTCAGCATGCTCATGATTTTTTTTTTTTTTTGTAGC [CGATG]”: the background-corrected fluorescence by setting is: (dye: Cy3 (3' terminal)) 0.535 ± 0.028; (dye: Cy5 (3' terminal)) 0.441 ± 0.081.
As for “TTTTTGCAGCATGCTGCTCATTTTTTTTTTTTTTTTTAAG [GAATT]”, the background-corrected fluorescence is, setting by setting: (dye: Cy3 (3' terminal)) 0.536 ± 0.025; (dye: Cy5 (3' terminal)) 0.411 ± 0.026.
Taken in the same sequence, the figures for “TTTTTTGAGCATCAGCAGCATTTTTTTTTTTTTTTCTGTT [TTGTC]” were 0.541 ± 0.023 and 0.411 ± 0.033.
For “TTTTTTGAGCATGATCAGCATTTTTTTTTTTTTTTCTCGT [TGCTC]”, the background-corrected fluorescence is, setting by setting: (dye: Cy3 (3' terminal)) 0.567 ± 0.015; (dye: Cy5 (3' terminal)) 0.416 ± 0.024.
As to “TTTTTGCAGCATGATCAGCATTTTTTTTTTTTTTTTTCGT [TGCTT]”, the background-corrected fluorescence is, setting by setting: (dye: Cy3 (3' terminal)) 0.564 ± 0.013; (dye: Cy5 (3' terminal)) 0.432 ± 0.025.
The corresponding values for “TTTTTTGAGCAGCATCATCATTTTTTTTTTTTTTTCTTGG [GGTTC]” are 0.631 ± 0.038 and 0.47 ± 0.05.
The corresponding values for “TTTTTTGCTGCGCATGATCATTTTTTTTTTTTTTTAATCG [GCTAA]” are 0.504 ± 0.0074 and 0.399 ± 0.026.
The corresponding values for “TTTTTTGATGATGATGATGATTTTTTTTTTTTTTTCCCCC” are 0.369 ± 0.018 and 0.251 ± 0.018.
Regarding “TTTTTGCATGAGCATCATCATTTTTTTTTTTTTTTTCTGG [GGTCT]”, the background-corrected fluorescence was found to be 0.563 ± 0.024 (dye: Cy3 (3' terminal)) and 0.43 ± 0.035 (dye: Cy5 (3' terminal)).
Taken in the same sequence, the figures for “TTTTTGCATGCTCATCATCATTTTTTTTTTTTTTTTAGGG [GGGAT]” were 0.653 ± 0.032 and 0.55 ± 0.037.
“TTTTTGCATCATGCTGCTGATTTTTTTTTTTTTTTTGAAC [CAAGT]”: the background-corrected fluorescence amounted to 0.461 ± 0.024 (dye: Cy3 (3' terminal)) and 0.345 ± 0.021 (dye: Cy5 (3' terminal)).
As for “TTTTTGCATGCGCATGAGCATTTTTTTTTTTTTTTTATCT [TCTAT]”, the background-corrected fluorescence is, setting by setting: (dye: Cy3 (3' terminal)) 0.457 ± 0.037; (dye: Cy5 (3' terminal)) 0.33 ± 0.017.
Taken in the same sequence, the figures for “TTTTTTGCTCATGCTGCTCATTTTTTTTTTTTTTTAGAAG [GAAGA]” were 0.5917 ± 0.0049 and 0.456 ± 0.025.
As to “TTTTTTCATGCTCAGCATCATTTTTTTTTTTTTTTGAGTG [GTGAG]”, the background-corrected fluorescence was 0.578 ± 0.031 (dye: Cy3 (3' terminal)) and 0.445 ± 0.054 (dye: Cy5 (3' terminal)).
